The target in this assay is T1, 35S-MCM (T.acidophilum MCM labeled with 35S-Met) (Thermoplasma acidophilum, UniProt Q9HK10 1-698, 35S-Met).
T1 sequence (looked up): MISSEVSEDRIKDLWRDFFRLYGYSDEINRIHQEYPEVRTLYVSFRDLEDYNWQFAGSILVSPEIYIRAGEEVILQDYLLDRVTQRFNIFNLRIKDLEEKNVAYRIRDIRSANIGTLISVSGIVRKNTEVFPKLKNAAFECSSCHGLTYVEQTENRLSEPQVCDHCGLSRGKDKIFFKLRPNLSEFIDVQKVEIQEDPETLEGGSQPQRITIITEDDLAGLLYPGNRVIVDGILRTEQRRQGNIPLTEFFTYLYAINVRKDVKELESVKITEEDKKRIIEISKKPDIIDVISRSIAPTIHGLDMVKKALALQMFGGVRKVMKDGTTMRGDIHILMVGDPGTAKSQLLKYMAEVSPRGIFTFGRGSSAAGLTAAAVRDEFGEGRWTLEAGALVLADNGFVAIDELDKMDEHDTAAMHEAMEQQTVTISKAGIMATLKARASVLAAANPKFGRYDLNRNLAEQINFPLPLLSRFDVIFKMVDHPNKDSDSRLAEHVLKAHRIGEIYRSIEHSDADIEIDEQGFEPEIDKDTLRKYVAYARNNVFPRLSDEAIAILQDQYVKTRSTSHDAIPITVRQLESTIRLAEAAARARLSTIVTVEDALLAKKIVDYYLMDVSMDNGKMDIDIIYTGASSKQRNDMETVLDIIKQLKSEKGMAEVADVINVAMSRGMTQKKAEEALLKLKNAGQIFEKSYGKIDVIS
Put plainly: pull-down.

The results in this text go back to article PMC1669734 (Nucleic Acids Research, 2006).

B1: T.acidophilum Cdc6-2 (Ta0636), C-terminal six His-tag (natural protein, Thermoplasma acidophilum, UniProt Q9HKG3 1-404, looked up)
chain: MDNPFARFAGTRTIQANLSLLEENYVPDSFPHRENQINEMVTILSSIMRGSRPSNIIVYGKTGTGKTSTTKYVTKMLVEAASNVSVVYVNCEIYDSPYSILVAIANSAGEEKIPELGWPIDRIYRETVERVEKTGKFFIIILDEMDRLIKKNGGDSLYVLLKLMTDVDSVRVSMIGITNDTTVLENIDARIKSRLNQESIVFPPYNASEIRDIISSRLDKVLGPGVVDDTAINLCAAIGAQEHGDARKAIDLMRIAIEIAIRENRNKITENEIYEARERYEMNVLREAISTLPLHSKIVLLSAVVTQEIEPNSVITGEIYENYRRICDDLGFSPLSPRRISDLLTELADYGLLVMDDRNMGKYGRTRSFSVVHQAETIKKYLLEDENLSMFKSSKMPKQTRFDT
As for B1, the binding result is “binds”.
